Data on 1 compound can be found in patent publication US9176064B2, “Bisubstrate fluorescent probes for protein kinase CK2” (University of Tartu, priority 2012, dated 2015).

Broadly, the remaining activity is the signal under treatment as a percentage of the control signal.

Among the targets are S6K1 (Homo sapiens, UniProt P23443); HER4 (Homo sapiens, UniProt Q15303); DAPK1 (Homo sapiens, UniProt P53355); HIPK3 (Homo sapiens, UniProt Q9H422); MINK1 (Homo sapiens, UniProt Q8N4C8).
Assay in all cases: Kinase panel residual activity
Holding throughout (format): biochemical
Common to all, as to details: compound at 1 micromolar

The next series addresses T1, EPH-B2 (Homo sapiens, UniProt P29323).
T1 sequence (P29323 19-1055): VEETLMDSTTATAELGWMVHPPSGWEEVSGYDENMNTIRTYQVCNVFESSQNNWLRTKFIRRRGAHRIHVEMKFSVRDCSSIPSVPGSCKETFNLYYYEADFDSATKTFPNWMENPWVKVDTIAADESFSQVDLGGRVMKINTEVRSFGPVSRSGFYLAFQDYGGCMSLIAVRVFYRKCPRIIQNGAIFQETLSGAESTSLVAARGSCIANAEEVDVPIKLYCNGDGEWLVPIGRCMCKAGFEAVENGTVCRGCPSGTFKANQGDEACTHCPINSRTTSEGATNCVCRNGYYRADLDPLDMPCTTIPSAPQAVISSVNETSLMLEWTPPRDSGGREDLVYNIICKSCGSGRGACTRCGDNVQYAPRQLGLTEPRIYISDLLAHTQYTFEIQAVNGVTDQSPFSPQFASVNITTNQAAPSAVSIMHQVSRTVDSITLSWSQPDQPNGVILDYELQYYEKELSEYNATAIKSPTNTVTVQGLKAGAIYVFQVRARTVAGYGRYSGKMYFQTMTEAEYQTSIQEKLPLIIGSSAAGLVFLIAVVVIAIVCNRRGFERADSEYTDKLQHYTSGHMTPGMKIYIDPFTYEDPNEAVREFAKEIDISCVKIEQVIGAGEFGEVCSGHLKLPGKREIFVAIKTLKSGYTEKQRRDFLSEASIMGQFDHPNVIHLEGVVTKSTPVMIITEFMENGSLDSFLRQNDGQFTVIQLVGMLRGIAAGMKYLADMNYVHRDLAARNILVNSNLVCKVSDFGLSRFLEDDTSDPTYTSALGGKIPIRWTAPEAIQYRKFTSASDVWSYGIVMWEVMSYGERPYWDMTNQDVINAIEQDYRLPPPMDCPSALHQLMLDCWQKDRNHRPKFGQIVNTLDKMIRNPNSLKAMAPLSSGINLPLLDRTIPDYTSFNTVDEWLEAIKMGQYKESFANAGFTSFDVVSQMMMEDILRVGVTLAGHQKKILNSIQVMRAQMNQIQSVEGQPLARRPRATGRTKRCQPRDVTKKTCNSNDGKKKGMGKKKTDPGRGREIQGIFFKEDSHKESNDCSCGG

The target in the next series is T2, Aurora A (Homo sapiens, UniProt O14965).
T2 sequence (O14965 1-403): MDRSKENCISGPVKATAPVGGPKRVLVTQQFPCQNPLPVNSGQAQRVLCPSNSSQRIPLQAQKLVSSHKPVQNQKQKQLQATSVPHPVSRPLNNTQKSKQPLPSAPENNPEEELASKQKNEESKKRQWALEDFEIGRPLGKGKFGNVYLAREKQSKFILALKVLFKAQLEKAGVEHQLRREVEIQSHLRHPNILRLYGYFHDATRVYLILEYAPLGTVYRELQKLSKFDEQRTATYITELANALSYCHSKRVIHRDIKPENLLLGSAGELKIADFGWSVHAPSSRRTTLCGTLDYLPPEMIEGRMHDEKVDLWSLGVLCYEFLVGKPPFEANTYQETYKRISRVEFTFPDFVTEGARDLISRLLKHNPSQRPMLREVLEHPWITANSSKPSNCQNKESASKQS

A further series has as its target T3, DDR2 (Homo sapiens, UniProt Q16832).
T3 sequence (Q16832 22-855): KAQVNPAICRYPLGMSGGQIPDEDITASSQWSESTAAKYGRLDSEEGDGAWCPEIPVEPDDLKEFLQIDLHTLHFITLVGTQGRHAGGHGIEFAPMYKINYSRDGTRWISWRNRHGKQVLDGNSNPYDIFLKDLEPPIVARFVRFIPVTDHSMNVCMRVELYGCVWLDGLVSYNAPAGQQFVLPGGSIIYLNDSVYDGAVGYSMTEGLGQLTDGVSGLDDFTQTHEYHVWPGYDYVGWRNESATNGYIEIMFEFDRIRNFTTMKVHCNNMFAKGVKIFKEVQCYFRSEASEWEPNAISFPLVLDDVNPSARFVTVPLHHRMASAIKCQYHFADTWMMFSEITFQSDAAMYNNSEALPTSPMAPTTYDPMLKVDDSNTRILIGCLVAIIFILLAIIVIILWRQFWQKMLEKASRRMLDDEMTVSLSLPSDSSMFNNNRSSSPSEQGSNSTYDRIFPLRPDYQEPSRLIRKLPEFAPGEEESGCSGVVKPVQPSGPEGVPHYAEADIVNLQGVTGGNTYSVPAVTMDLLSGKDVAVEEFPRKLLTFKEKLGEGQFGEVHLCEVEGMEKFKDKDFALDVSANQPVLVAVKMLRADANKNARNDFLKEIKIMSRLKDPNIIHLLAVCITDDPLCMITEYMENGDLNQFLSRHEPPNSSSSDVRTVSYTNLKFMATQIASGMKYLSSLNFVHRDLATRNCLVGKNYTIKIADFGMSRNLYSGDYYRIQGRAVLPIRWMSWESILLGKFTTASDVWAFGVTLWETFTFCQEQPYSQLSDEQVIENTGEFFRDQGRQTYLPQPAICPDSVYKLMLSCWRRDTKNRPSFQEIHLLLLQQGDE

Where a SMILES comes first, the peptide text is derived from it. [ ]: non-standard residue; d: D form. The star is where a group is joined. X1 = O=C(CCCCCCCn1cnc2c(Br)c(Br)c(Br)c(Br)c21)*

MINK1, sequence (Q8N4C8 whole entry, species assumed): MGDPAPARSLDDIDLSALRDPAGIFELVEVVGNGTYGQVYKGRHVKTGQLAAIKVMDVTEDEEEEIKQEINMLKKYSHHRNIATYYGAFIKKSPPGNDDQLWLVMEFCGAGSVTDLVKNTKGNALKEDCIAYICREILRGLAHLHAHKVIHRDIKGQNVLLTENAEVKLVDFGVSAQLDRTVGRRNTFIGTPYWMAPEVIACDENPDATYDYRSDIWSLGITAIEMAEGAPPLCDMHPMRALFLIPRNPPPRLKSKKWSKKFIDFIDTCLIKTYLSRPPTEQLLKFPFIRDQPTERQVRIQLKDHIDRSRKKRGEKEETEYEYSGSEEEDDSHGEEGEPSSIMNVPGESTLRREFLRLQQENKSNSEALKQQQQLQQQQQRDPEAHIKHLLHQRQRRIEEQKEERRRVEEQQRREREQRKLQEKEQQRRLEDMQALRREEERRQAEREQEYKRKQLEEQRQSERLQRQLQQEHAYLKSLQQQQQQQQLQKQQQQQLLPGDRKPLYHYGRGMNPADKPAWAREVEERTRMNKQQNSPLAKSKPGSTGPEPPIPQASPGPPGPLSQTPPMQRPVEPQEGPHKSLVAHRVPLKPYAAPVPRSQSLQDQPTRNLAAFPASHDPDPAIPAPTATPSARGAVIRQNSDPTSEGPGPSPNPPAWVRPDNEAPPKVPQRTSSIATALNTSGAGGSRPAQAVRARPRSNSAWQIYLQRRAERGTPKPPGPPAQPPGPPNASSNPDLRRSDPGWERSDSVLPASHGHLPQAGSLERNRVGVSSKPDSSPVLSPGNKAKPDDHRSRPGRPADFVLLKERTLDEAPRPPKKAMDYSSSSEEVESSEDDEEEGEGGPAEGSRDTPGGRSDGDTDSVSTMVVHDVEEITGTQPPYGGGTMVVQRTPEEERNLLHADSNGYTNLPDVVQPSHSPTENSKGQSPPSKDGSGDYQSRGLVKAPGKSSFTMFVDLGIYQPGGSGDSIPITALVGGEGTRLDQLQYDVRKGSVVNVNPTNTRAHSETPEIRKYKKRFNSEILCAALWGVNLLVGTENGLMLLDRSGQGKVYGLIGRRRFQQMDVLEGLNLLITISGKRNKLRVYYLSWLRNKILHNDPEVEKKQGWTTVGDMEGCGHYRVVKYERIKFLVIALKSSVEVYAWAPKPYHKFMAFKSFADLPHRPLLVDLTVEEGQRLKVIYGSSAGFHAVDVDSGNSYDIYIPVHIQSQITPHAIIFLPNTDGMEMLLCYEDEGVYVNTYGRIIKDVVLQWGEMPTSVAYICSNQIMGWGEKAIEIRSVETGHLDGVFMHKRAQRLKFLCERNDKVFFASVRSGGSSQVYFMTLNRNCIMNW
S6K1, sequence (P23443 whole entry, species assumed): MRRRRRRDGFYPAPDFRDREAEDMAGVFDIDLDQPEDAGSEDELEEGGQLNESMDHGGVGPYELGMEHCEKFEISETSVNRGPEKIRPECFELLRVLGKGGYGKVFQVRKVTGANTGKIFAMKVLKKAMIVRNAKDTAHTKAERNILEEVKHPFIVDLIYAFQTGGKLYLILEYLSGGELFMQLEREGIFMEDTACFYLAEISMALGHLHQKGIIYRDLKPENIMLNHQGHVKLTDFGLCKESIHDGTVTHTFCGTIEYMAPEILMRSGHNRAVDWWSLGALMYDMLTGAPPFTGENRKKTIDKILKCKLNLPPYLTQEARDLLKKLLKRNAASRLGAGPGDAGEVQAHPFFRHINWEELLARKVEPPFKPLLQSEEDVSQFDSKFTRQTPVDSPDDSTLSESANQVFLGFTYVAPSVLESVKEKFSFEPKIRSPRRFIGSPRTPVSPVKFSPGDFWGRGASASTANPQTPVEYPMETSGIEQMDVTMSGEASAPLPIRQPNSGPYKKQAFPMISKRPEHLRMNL
DAPK1, sequence (P53355 whole entry, species assumed): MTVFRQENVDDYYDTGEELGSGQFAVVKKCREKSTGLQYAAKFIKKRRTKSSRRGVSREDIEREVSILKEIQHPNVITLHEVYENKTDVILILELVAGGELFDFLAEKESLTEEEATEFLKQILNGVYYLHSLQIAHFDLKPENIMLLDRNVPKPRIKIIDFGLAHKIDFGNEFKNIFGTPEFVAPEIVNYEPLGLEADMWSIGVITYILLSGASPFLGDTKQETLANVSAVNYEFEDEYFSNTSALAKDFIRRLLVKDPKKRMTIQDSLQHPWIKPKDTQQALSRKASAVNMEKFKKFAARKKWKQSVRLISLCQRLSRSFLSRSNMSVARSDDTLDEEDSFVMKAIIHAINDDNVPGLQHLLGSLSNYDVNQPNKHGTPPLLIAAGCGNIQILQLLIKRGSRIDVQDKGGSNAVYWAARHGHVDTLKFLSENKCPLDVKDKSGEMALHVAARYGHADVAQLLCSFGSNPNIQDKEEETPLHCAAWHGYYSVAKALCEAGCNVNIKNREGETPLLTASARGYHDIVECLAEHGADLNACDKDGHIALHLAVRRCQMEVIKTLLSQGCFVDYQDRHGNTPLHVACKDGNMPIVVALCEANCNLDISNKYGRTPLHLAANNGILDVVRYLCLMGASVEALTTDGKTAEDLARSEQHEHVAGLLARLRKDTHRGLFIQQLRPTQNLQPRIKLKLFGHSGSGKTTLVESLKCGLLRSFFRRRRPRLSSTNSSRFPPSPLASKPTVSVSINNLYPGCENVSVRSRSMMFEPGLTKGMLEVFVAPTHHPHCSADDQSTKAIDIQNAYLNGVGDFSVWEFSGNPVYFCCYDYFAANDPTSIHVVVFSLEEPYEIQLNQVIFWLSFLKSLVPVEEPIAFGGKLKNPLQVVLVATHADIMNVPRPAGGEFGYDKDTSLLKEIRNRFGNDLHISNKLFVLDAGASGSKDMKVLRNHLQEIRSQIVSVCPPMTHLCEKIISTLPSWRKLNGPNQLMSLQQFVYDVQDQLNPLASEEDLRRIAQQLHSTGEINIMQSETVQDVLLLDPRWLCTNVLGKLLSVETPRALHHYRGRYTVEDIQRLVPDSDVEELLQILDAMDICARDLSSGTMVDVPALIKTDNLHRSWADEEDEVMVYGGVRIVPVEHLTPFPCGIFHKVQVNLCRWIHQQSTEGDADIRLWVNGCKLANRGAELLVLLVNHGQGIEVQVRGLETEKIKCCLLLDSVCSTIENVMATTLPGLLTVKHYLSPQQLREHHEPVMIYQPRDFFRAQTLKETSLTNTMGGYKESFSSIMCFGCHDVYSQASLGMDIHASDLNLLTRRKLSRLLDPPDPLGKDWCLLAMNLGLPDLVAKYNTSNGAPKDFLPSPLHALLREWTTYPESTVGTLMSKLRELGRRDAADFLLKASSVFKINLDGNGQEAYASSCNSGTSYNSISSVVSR
HIPK3, sequence (Q9H422 whole entry, species assumed): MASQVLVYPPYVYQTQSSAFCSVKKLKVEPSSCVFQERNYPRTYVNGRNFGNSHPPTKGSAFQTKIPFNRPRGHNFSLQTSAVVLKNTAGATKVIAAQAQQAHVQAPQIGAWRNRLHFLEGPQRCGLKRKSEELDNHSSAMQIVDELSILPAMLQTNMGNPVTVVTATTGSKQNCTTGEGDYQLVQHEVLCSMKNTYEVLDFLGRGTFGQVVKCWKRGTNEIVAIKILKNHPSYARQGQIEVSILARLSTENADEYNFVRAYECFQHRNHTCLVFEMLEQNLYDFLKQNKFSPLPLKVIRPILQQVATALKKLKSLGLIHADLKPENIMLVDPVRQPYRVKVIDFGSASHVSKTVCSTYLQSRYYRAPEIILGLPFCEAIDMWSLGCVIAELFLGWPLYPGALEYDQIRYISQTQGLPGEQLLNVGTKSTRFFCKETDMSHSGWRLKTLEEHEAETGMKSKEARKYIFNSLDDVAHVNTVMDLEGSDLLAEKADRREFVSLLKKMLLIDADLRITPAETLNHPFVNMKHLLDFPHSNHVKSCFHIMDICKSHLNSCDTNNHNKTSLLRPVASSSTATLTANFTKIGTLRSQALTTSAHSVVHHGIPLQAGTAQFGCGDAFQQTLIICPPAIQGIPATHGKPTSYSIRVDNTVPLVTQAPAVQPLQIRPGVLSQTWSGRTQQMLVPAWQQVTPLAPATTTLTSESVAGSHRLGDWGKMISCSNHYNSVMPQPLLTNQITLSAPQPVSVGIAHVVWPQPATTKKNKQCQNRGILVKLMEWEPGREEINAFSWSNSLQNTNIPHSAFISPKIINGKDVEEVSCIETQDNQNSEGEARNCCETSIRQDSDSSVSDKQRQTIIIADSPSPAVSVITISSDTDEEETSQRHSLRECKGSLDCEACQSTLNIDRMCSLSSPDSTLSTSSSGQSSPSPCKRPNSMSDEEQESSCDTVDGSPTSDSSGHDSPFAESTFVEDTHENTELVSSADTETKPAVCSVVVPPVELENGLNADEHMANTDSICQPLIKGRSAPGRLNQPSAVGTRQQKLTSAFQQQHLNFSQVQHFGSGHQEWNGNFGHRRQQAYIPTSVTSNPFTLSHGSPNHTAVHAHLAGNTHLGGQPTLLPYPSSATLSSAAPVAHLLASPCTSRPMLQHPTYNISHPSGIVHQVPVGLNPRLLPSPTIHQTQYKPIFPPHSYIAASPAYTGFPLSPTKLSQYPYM

For `NCCCC[C@H](NC(=O)[C@H](CC(=O)O)NC(=O)[C@H](CC(=O)O)NC(=O)[C@H](CC(=O)O)NC(=O)[C@H](CC(=O)O)NC(=O)[C@H](CC(=O)O)NC(=O)[C@@H](CC(=O)O)NC(=O)CCCCCCCn1cnc2c(Br)c(Br)c(Br)c(Br)c21)C(=O)O` [TBBI-OcA-(D-Asp)-(L-Asp)5-(L-Lys)-OH] (X1-[dD]DDDDDK-OH), the remaining activity at 1 µM came to 62% with S6K1; 113% with EPH-B2; 118% with Aurora A; 103% with HER4; 109% in the series with DDR2; 84% with DAPK1. Moreover, the remaining activity at 1 µM with HIPK3 was determined as 75%; in the series with MINK1, 139%.
